Measured values: patent publication US20110064670A1, “METHOD TO IDENTIFY A PATIENT WITH AN INCREASED LIKELIHOOD OF RESPONDING TO AN ANTI-CANCER AGENT” (Genentech, Inc., priority 2009, published 2011)

Tested on: non-tumor bearing mice
Assay: Lymph pulsation frequency assay in non-tumor bearing mice
Assay type: in vivo, mouse
Conditions: acute injection, n=6 animals/group (FIG. 6B)
Description: Female Balb-c nude mice from Charles River Laboratory were used at 6-8 weeks of age. To establish baseline pulsation frequency and lymph node loading rates we imaged non-tumor bearing mice. In some cases mice were longitudinally imaged for pulsation, i.e., the same mouse was imaged daily over a 7-day period. Mice were anesthetized with 2% Isoflurane and maintained at 37° C. throughout experiments. A PulseOx probe was attached to the thigh (opposing injection site) to monitor heart rate before running pulsation assays.
For all experiments fluorescent dye injections were performed with 5 mg AlexaFluor680 conjugated to dextran 70 kd (MolecularProbes) in 1 ml sterile PBS. […]
Epi-fluorescence Microscopy Pulsatile flow activity was observed using an epifluorescence microscope (Prairie Technologies) equipped with a Cy5.5 Red filter set (Chroma), Halogen light source (ExFo Excite Series 120), 4× objective lens (Olympus) and a charge coupled device (CCD) camera (S97827, Olympus). […] Pulsation and heart rates were monitored (PulseOx) for stability for 10 minutes before video capture. […]
Digital videos (5 minutes) of pulsation were acquired with PictureFrame software (Optronics) using time lapse settings (282 ms exposure, no inter-frame delay, 5 minutes total acquisition time). Data was analyzed off-line from recorded time lapse videos. […]

B1: recombinant VEGF-C protein: recombinant VEGF-C protein injected acutely in non-tumor bearing mice (protein, UniProt P97953 108-223, looked up)
Vascular endothelial growth …: AHYNTEILKSIDNEWRKTQCMPREVCIDVGKEFGAATNTFFKPPCVSVYRCGGCCNSEGLQCMNTSTGYLSKTLFEITVPLSQGPKPVTISFANHTSCRCMSKLDVYRQVHSIIRR
**Q.** How did the lymph pulsation frequency turn out when B1 was run?
**A.** does not result in any significant change
